Consider 2 molecules from patent US20210113587A1 (ADC THERAPEUTICS, published 2021).

In experiment [1] the target is T1, human recombinant soluble CD25 ectodomain (human, UniProt P01589 22-240).
T1 construct: extracellular domain; Immobilised on a Biacore CM3 chip; also called sCD25 ectodomain; human sCD25 ectodomain
T1 sequence (looked up): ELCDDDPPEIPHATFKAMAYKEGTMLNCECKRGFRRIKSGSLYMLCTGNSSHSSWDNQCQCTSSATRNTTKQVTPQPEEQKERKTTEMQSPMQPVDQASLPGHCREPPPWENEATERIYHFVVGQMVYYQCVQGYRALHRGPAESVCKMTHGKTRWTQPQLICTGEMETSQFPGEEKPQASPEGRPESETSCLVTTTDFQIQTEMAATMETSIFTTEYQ
Briefly: SPR (Biacore CM3 chip), sCD25 ectodomain immobilised; mean of runs. The method, then:
(§1) The equilibrium dissociation constant, KD, was calculated for both molecules using BIAevaluation ® software.

Experiment [2] has as its target T1, human recombinant soluble CD25 …. Briefly: SPR (Biacore CM3 chip), sCD25 ectodomain immobilised; run 4. The method, then:
as §1

Experiment [3] deals with T2, human CD25 on concanavalin-A activated CD25-positive human PBMCs and CD25-expressing lymphoma cell lines (human, UniProt P01589 22-272).
T2 construct: whole, on cells; also called IL2R-α; Interleukin-2 receptor-α
T2 sequence (looked up): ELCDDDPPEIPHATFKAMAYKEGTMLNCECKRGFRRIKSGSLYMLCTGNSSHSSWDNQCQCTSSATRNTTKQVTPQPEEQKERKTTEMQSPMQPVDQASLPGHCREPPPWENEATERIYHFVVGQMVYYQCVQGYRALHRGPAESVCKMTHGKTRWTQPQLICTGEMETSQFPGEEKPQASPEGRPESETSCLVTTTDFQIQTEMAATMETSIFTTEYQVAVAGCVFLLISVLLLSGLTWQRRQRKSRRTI
Description: flow cytometry, MFI on concanavalin-A activated CD25-positive human PBMCs (CD25-PE gate). The method, then:
FIG. 1. […] Isotype, non-targeting-ADC-FITC was used as the non-binding ADC control. The EC₅₀ was ≈0.03 μg/ml (180 pM).

For experiment [4], the target named is T1, human recombinant soluble CD25 …. Description: SPR (Biacore CM3 chip), sCD25 ectodomain immobilised; run 2. The method, then: as §1
The target is the same in experiment [5]. Briefly: SPR (Biacore CM3 chip), sCD25 ectodomain immobilised; run 1. The method, then: as §1
On the technique in general: Surface plasmon resonance follows binding to a sensor surface in real time, without labels.

For experiment [6] the target is unchanged. Briefly: SPR (Biacore CM3 chip), sCD25 ectodomain immobilised; run 3. The method, then:
as §1

Experiment [7] has the same target. Description: SPR (Biacore CM3 chip), sCD25 ectodomain immobilised; run 6. The method, then:
as §1

For experiment [8] the target is unchanged. Description: SPR (Biacore CM3 chip), sCD25 ectodomain immobilised; run 5. The method, then:
as §1

B1: ADCT-301 (antibody, V domains shown)
VH: QVQLVQSGAEVKKPGSSVKVSCKASGGTFSRYIINWVRQAPGQGLEWMGRIIPILGVENYAQKFQGRVTITADKSTSTAYMELSSLRSEDTAVYYCARKDWFDYWGQGTLVTVSS
VL: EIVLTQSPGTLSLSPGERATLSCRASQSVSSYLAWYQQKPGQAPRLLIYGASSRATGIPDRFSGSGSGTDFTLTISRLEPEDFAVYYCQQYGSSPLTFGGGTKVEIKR
modifications: pyrrolobenzodiazepine (PBD) warhead attached by a cleavable linker, drug-antibody ratio 2.3±0.3; attachment residues not stated
notes: also called HuMax-TAC-E of WO2014/57119
The term Kd denotes the free concentration of one partner at which half of the binding sites on the other are occupied at equilibrium, for simple one-to-one binding. What is called EC50 is the concentration that produces a half-maximal response. Higher therefore signals weaker potency. With B1, the Kd in experiment [1] amounted to 0.0209 nM; in experiment [2], 0.0179 nM; in experiment [4], 0.0205 nM; in experiment [5], 0.0205 nM; in experiment [6] it was 0.0207 nM; in experiment [7], 0.0244 nM. Moreover, the Kd in experiment [8] came out at 0.0212 nM. The EC50 in experiment [3] was roughly 0.18 nM.

B2: HuMax®-TAC (antibody, V domains shown)
VH: QVQLVQSGAEVKKPGSSVKVSCKASGGTFSRYIINWVRQAPGQGLEWMGRIIPILGVENYAQKFQGRVTITADKSTSTAYMELSSLRSEDTAVYYCARKDWFDYWGQGTLVTVSS
VL: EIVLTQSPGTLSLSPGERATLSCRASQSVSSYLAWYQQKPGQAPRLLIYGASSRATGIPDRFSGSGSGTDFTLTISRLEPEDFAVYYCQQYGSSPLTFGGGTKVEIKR
notes: also called AB12; naked antibody
Regarding B2, the Kd is 0.0158 nM in experiment [1]; 0.0148 nM in experiment [2]; 0.016 nM in experiment [4]; 0.0146 nM in experiment [5]; 0.0191 nM in experiment [6]; 0.0144 nM in experiment [8].
